Target: T1, mCherry-α-catenin (UniProt P26231 1-906)
T1 construct: Monomeric pool from gel filtration; source: E. coli CK600K or BL21-DE3 Star, purified (Glutathione Sepharose, TEV protease cleavage, gel filtration; the monomeric pool was collected); not shown: GST (from the vector pGEX-2T); mCherry, N-terminal, kept
T1 sequence (looked up): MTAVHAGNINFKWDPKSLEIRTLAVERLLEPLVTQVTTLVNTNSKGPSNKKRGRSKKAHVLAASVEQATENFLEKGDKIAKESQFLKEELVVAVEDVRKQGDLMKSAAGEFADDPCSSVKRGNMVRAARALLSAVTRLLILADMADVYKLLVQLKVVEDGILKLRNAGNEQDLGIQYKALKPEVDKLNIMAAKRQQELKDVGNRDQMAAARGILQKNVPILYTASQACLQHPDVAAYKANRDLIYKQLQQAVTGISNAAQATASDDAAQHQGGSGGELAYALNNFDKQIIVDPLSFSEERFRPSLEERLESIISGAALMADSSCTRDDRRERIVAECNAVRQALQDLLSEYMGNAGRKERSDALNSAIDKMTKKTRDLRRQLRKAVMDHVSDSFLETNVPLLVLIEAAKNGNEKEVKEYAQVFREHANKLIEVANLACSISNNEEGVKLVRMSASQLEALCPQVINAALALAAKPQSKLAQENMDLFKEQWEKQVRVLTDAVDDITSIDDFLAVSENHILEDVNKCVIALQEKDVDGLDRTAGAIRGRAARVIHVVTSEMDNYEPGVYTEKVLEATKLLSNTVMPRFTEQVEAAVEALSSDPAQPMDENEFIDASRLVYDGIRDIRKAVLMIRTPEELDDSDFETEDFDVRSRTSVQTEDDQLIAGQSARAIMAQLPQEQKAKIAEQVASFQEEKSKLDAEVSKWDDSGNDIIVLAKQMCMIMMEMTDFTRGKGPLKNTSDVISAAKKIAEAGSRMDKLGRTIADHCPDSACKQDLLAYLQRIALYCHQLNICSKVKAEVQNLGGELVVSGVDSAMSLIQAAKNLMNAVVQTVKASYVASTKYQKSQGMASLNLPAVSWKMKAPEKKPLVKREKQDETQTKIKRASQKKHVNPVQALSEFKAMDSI
Assay: droplet co-partition assay (confocal microscopy); purified fluorescent proteins mixed at equimolar 1 μM with mEGFP-β-catenin (Wt or IDRs*) in droplet formation buffer (50 mM Tris-HCl pH 7.5, 125 mM NaCl, 10% glycerol, 1 mM DTT); droplets induced with 10% PEG-8000; fluorescence inside β-catenin droplets
Settings: both partners purified

B1: mEGFP-β-catenin^Wt (natural protein, UniProt P35222 1-781, looked up)
chain: MATQADLMELDMAMEPDRKAAVSHWQQQSYLDSGIHSGATTTAPSLSGKGNPEEEDVDTSQVLYEWEQGFSQSFTQEQVADIDGQYAMTRAQRVRAAMFPETLDEGMQIPSTQFDAAHPTNVQRLAEPSQMLKHAVVNLINYQDDAELATRAIPELTKLLNDEDQVVVNKAAVMVHQLSKKEASRHAIMRSPQMVSAIVRTMQNTNDVETARCTAGTLHNLSHHREGLLAIFKSGGIPALVKMLGSPVDSVLFYAITTLHNLLLHQEGAKMAVRLAGGLQKMVALLNKTNVKFLAITTDCLQILAYGNQESKLIILASGGPQALVNIMRTYTYEKLLWTTSRVLKVLSVCSSNKPAIVEAGGMQALGLHLTDPSQRLVQNCLWTLRNLSDAATKQEGMEGLLGTLVQLLGSDDINVVTCAAGILSNLTCNNYKNKMMVCQVGGIEALVRTVLRAGDREDITEPAICALRHLTSRHQEAEMAQNAVRLHYGLPVVVKLLHPPSHWPLIKATVGLIRNLALCPANHAPLREQGAIPRLVQLLVRAHQDTQRRTSMGGTQQQFVEGVRMEEIVEGCTGALHILARDVHNRIVIRGLNTIPLFVQLLYSPIENIQRVAAGVLCELAQDKEAAEAIEAEGATAPLTELLHSRNEGVATYAAAVLFRMSEDKPQDYKKRLSVELTSSLFRTEPMAWNETADLGLDIGAQGEPLGYRQDDPSYRSFHSGGYGQDALGMDPMMEHEMGGHHPGADYPVDGLPDLGHAQDLMDGLPPGDSNQLAWFDTDL
notes: also called mEGFP-β-cat^Wt; source: E. coli CK600K or BL21-DE3 Star, purified (Glutathione Sepharose, TEV protease cleavage, gel filtration); not shown: GST (from the vector pGEX-2T); mEGFP, N-terminal, kept
- binding result: binds

From publication PMC12783686, “β-catenin condensation facilitates clustering of the cadherin/catenin complex and formation of nascent cell-cell junctions” (Nature Communications, 2025)
